Laboratory results as given in paper PMC8476707.
Where “and” joins values, the source holds several entries; their conditions need not be identical. Equal entries are not always repeated.

Biological target: empty AAV8 capsid (recombinant adeno-associated virus serotype 8, no genome) (adeno-associated virus 8 (AAV8)) (UniProt Q8JQF8)
Assay: native MS; charge detection mass spectrometry (CDMS) of single ions; nanoelectrospray from 200 mM ammonium acetate pH 7.5 after exchange on Micro Bio-Spin columns; 100 ms trapping time; charge versus mass scatterplot; capsid with capsid (multimers of whole particles)

empty AAV8 capsid (recombinant adeno-associated virus serotype 8, no genome) (from UniProt Q8JQF8 1-738) (complex)
percent of ions that are capsid dimers: 3.8%
percent of ions that are capsid trimers: 0.8%
stoichiometry N: 2 and 3
